The text below walks through data of patent publication US20260042834A1, “ANTI-CORTICOTROPIN-RELEASING HORMONE ANTIBODIES AND POLYCYSTIC OVARY SYNDROME” (HBM ALPHA THERAPEUTICS, INC., priority 2022, published 2026).

The subject of the assay is restraint-induced ACTH and corticosterone. Nature of the assay: Wildtype mice restraint-stress model (ACTH and corticosterone). The format is in vivo, mouse. As for the experimental part:
8-10 week old wildtype female C57BL/6 mice were obtained from Charles River Laboratories. Mrap1 KO mice were obtained from Queen Mary University of London, UK. SSR125543A, a small molecule CRHR1 antagonist, was obtained from Axon Medchem (Cat #Axon 1799). Mouse Corticosterone (55-Corms-E01) and adrenocorticotropic hormone (ACTH) ELISA kits (21-ACTHU-E01) were obtained from ALPCO, USA. All procedures were carried out in accordance with the Guide for the Care and Use of Laboratory Animals of the National Institutes of Health. Protocols were approved by Charles River Laboratories Institutional Animal Care and Use Committee (IACUC).
To determine the effect of nonpainful physical restraint upon stress responses, mice were restrained in 50 ml polypropylene ventilated tubes in which the tip was cut off with a razor blade to allow the mouse to breathe easily for 15-20 minutes. A mouse was directed to the open tube and crawled in. A piece of paper towel was put behind the mouse so that it could not back out, and the cap was screwed on. The mouse was placed back in its cage, ventral size down on the bedding. This stressor is not considered painful, as mice are confined to a limited space (in a ventilated restraint tube) but not in an unnatural physical position. The investigator was present in the room during the entire procedure. At the end of the procedure, the mouse was removed by the tail.
On day 1, each mouse was injected intraperitoneally with 20 mg/kg of anti-CRH mAbs, hIgG1 or PBS (5 mice per group). On day 2 or 3, and 14 each mouse was subjected to physical restraint-stress described above for 15 or 20 min. Immediately after restraint-stress, 200 μl of blood was collected in EDTA tubes from the submandibular vein of each mouse. Plasma was separated using a refrigerated centrifuge (4° C. at 500×g for 10 min) and snap-frozen in dry ice for subsequent ACTH and corticosterone ELISA measurement.
On day 1, one half of mice were injected IP with 20 mg/kg of anti-CRH Ab or hIgG1 (5 mice per group). On day 3, the other half of mice were injected IP with 30 mg/kg of SSR125543A or solvent (5 mice each group). Two hours later, four groups of mice were subjected to restraint-stress as described above for 20 min. Immediately after restraint-stress, 200 μl of blood was collected in EDTA tubes from the submandibular vein of each mouse in all four groups. Plasma was separated as described above and snap-frozen in dry ice for subsequent ACTH and corticosterone ELISA measurement. On day 4, SSR125543A or solvent-treated mice were subjected to a second round of restraint stress for 20 min and plasma was collected. Two weeks later, anti-CRH mAb- or hIgG1-treated mice were subjected to physical stress for 20 min followed by plasma collection.

B1: PR302334-24: humanized variant of Series 9 mAb PR302334; VH SEQ ID NO: 275, VL SEQ ID NO: 328 (antibody, V domains shown)
VH: EVQLVESGGGLVKPGGSLRLSCAASGFTFSTYAMSWVRQAPGKGLEWVASIRSGGTTYYPDSVKGRFTISRDNAKNSLYLQMNSLRAEDTAVYYCTRGIDWGQGTTVTVSS
VL: DIVMTQSPDSLAVSLGERATINCKASQSVNNDVAWYQQKPGQPPRLLIYYASNRYTGVPDRFSGSGSGTDFTLTISSLQAEDLAVYFCQQDYSSWTFGGGTKVEIK
modifications: PR302334-16 VH, PR302334-24 VH, PR302334-25 VH; PR302334-10 VL, PR302334-24 VL, PR302334-26 VL, PR302334-4 VL
For B1, the “efficacy versus SSR125543A at inhibiting restraint induced ACTH and corticosterone” value (doses not given) was “superior efficacy”. Further, where the note is “restraint”, the “duration of the effects” value is reported as “at least 17 days”; the “inhibition of ACTH and corticosterone versus SSR125543A” value was “more complete inhibition”. In addition, the “efficacy in reducing plasma ACTH and corticosterone levels versus SSR125543A at 30 mg/kg” value (restraint, mAb 20 mg/kg) is recorded as “more efficacious”.
